In patent US20030211141A1 one finds C2C12 skeletal muscle cell attachment to a βIG-H3 substratum after function-perturbing anti-α7 antibody (% reduction of attachment) data, which are given here for one substance.

The target of the test is integrin α7β1 on C2C12 murine myoblasts (murine) (UniProt Q61738). Put plainly: cell-based or functional assay.

The substance “human recombinant βIG-H3 (Transforming Growth Factor-β Induced Gene-Human Clone 3 protein), expressed in CHO cells and purified (from UniProt Q15582 1-683) (ligand)” had a C2C12 skeletal muscle cell attachment to a βIG-H3 substratum after function-perturbing anti-α7 antibody (% reduction of attachment) of 80.
